In test [1] the target is STEP32 C/S (catalytically inactive substrate-trapping mutant of the catalytic domain of protein tyrosine phosphatase STEP/PTPN5, aa 282-563, C496S, N-terminal 6xHis tag) (Homo sapiens (Human)) (UniProt P54829). As to the kind of experiment: SPR (value taken from Table S3).
The target is the same in test [2]. Description: fluorescence polarization competition; displaces TAMRA-3Y-F2Pmp from STEP32 C/S.
For test [3] the target is unchanged. As to the kind of experiment: SPR (Biacore 3000), peptide immobilized, STEP32 C/S analyte, 1:1 Langmuir fit.
The target is the same in test [4]. As to the kind of experiment: SPR; reference p3Y.
Test [5] has the same target. Description: fluorescence polarization competition; column headed Kd, the text speaks of IC50 values in Table 3.
Test [6] shares this target. Description: ligand efficiency derived from the binding data.
Test [7] shares this target. Description: fluorescence polarization competition; displaces TAM-3Y-F2Pmp from STEP32 C/S. In general terms: Polarisation of emitted light reports the rotation of a fluorescent probe.
Test [8] has the same target. Description: fluorescence polarization competition; reference EGYNVpY hexapeptide.
The target is the same in test [9]. As to the kind of experiment: SPR, peptide immobilized, STEP32 C/S analyte. On the technique in general: In SPR one partner is held on a chip, and binding of the other changes the refractive index at the surface.
The target of test [10] is T1, STEP32 WT (catalytic domain of protein tyrosine phosphatase STEP/PTPN5, aa 282-563, N-terminal 6xHis tag) (UniProt P54829 282-563).
T1 construct: Expressed from pLIC-SGC1-PTPN5 WT (Addgene 39166); also called catalytic active STEP32
T1 sequence: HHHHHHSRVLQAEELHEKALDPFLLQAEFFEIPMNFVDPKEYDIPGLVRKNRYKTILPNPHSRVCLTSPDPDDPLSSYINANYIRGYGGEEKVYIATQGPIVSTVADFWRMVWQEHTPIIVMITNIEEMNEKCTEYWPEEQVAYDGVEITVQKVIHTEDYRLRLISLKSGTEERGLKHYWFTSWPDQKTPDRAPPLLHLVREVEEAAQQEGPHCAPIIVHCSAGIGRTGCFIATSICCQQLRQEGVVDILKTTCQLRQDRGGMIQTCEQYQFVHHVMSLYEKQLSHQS
Description: SPR, peptide immobilized, STEP32 WT analyte (per FIG. 7 legend).

For test [11], the target named is T1, STEP32 WT (catalytic domain of protein …). As to the kind of experiment: SPR (Biacore 3000), peptide immobilized, STEP32 WT analyte (per FIG. 7 legend), 1:1 Langmuir fit.

Square brackets hold non-standard residues; d marks the D form. Ends that are not written are not given here. F2Pmp = N[C@@H](Cc1ccc(C(F)(F)P(=O)(O)O)cc1)C(=O)O A value given as a limit tells only on which side of the number the result lay.

By Kd is commonly meant the constant that tells how readily two partners part at equilibrium. A higher Kd goes with weaker binding. Usually Ki stands for the dissociation constant of the complex between target and ligand, obtained from inhibition or displacement. In general, koff refers to a measure of how fast the partners let go of each other. Higher therefore signals a short-lived complex. A word on the kon: it is a measure of how fast the partners come together. Higher therefore signals fast association. For orientation: IC50 means the point on the concentration scale where inhibition reaches its midpoint. High values mean lower potency, low ones higher potency.

In the case of p3Ysh-1 (PEG2-NVpYG) (peptide), in [1], the Kd came out at 26000 nM. In test [2], this molecule gave a Ki of 4990 nM. In addition, in [3], the Ka was 38400 M⁻¹, the Kd is 26000 nM and the koff stood at 0.00252 s⁻¹.
The molecule p3Ysh-2 (PEG2-YNVpYG) (peptide) showed a dissociation constant (Kd) in test [1] of 3960 nM. The molecule further had a Ki in test [2] of 13100 nM. Besides, the fold higher Kd than p3Y in test [4] was determined as 17 fold. Further, in [3], the Ka worked out at 253000 M⁻¹, the Kd is 3960 nM, the koff worked out at 0.179 s⁻¹ and the kon worked out at 45200 M⁻¹ s⁻¹.
For p3Ysh-3 (PEG2-EGYNVpY) (peptide), the Kd in test [1] came to 60 nM. The IC50 in test [5] turned out to be 2600 nM. In addition, the LE (ligand efficiency) in test [6] turned out to be 0.64. In addition, the Ki in test [2] came out at 1640 nM. In addition, the Ki in test [7] turned out to be 690 nM. In test [4], the fold lower Kd than p3Y was 4 fold and the fold smaller Kd than p3Y is over 2 fold. Also, in [3], the Ka is 1.88e+07 M⁻¹, the Kd turned out to be 53.1 nM, the koff was 0.00176 s⁻¹ and the on-rate (kon) turned out to be 33100 M⁻¹ s⁻¹.
With p3Ysh-4 (PEG2-NSpYG) (peptide), the Ki in test [2] is 13700 nM.
Still for that read-out and setting: in the case of p3Ysh-5 (PEG2-YVpYG) (peptide) it was 5340 nM.
Turning to p3Ysh-6 (PEG2-FGYNVpYG) (peptide), in test [1], the Kd worked out at 6130 nM. Moreover, the Ki in test [2] amounted to 6960 nM. The fold higher Kd than p3Y in test [4] came to 6.4 fold. Besides, in test [3], the Ka turned out to be 163000 M⁻¹, the Kd stood at 6130 nM, the koff was 0.11 s⁻¹ and the kon is 17900 M⁻¹ s⁻¹.
Consider p3Ysh-7 (PEG2-FSpYG) (peptide), for which the Ki in test [2] turned out to be 4570 nM.
For the molecule p-fin1 (GYNVpY) (peptide), in test [5], the IC50 came out at 8010 nM. The molecule also displayed a Ki in [7] of 1900 nM.
In the same order, the values of p-fin2 (DGYNVpY) (peptide) are 7150 nM and 1850 nM.
The molecule p-fin3 (NGYNVpY) (peptide) had an IC50 in test [5] of 8840 nM. This molecule came in with a Ki in [7] of 2160 nM.
Molecule p-fin4 (EGYNVpYE) (peptide) came in with an IC50 in test [5] of 1860 nM. The Ki in test [7] turned out to be 360 nM. In test [3], this molecule returned a Ka of 1.13e+07 M⁻¹, an equilibrium dissociation constant (Kd) of 88.4 nM, a koff of 0.00692 s⁻¹ and a kon of 78200 M⁻¹ s⁻¹. For the same molecule, the fold improvement of the inhibition constant over the original hexapeptide in test [8] is 2 fold. Besides, the Kd in test [9] stood at 90 nM.
With p-fin5 (EGYNVpYGD) (peptide), in test [5], the IC50 came to 3360 nM. The molecule further came in with a Ki in test [7] of 760 nM.

B1: 3Y-F2Pmp (ATYKEGYNV{F2Pmp}G) (peptide)
peptide: ATYKEGYNV[F2Pmp]G
notes: also called p3Y-F2Pmp
On to B1, for which, in [10], the Kd worked out at 270 nM. Moreover, in test [11], the Ka was 3.74e+06 M⁻¹, binding was put at a Kd of 268 nM, the koff came out at 0.00656 s⁻¹ and the kon came to 24500 M⁻¹ s⁻¹.

B2: 3Ysh-3-F2Pmp (EGYNV{F2Pmp}) (peptide)
peptide: EGYNV[F2Pmp]
notes: also called 3Ysh-F2Pmp
On to B2, for which, in [10], the Kd was 240 nM. In [11], this molecule displayed a Ka of 4.12e+06 M⁻¹, a dissociation constant (Kd) of 242 nM, a koff of 0.00483 s⁻¹ and a kon of 19900 M⁻¹ s⁻¹.

(Values after patent US20230159589A1 (published 2023).)
